Experimental data as given in US20150183880A1.

What was measured:
[1] = target: IGF-1R and EGP-1 together on cancer cell lines (MCF-7, DU-145, ME-180); assay: flow cytometry (FACScan), MCF-7 cells; structural control
[2] = target: recombinant human IGF-1R (R&D Systems, Catalog #391-GR), extracellular domain (human) (UniProt P08069); assay: rhIGF-1R-coated beads; competitor unlabeled R1
[3] = target: recombinant human IGF-1R (R&D Systems, Catalog #391-GR), extracellular domain (human) (UniProt P08069); assay: rhIGF-1R-coated beads; competitor unlabeled 1-2
[4] = target: recombinant human IGF-1R (R&D Systems, Catalog #391-GR), extracellular domain (human) (UniProt P08069); assay: rhIGF-1R-coated beads; competitor unlabeled 1H7
[5] = target: recombinant human IGF-1R (R&D Systems, Catalog #391-GR), extracellular domain (human) (UniProt P08069); assay: rhIGF-1R-coated beads; competitor unlabeled 2C8
[6] = target: recombinant human IGF-1R (R&D Systems, Catalog #391-GR), extracellular domain (human) (UniProt P08069); assay: rhIGF-1R-coated beads; competitor unlabeled 3B7
[7] = target: recombinant human IGF-1R (R&D Systems, Catalog #391-GR), extracellular domain (human) (UniProt P08069); assay: rhIGF-1R-coated beads; competitor unlabeled cR1
[8] = target: recombinant human IGF-1R (R&D Systems, Catalog #391-GR), extracellular domain (human) (UniProt P08069); assay: rhIGF-1R-coated beads; competitor unlabeled hR1
[9] = target: recombinant human IGF-1R (R&D Systems, Catalog #391-GR), extracellular domain (human) (UniProt P08069); assay: rhIGF-1R-coated beads; competitor unlabeled 17-69
[10] = target: recombinant human IGF-1R (R&D Systems, Catalog #391-GR), extracellular domain (human) (UniProt P08069); assay: rhIGF-1R-coated beads; competitor unlabeled 24-31
[11] = target: recombinant human IGF-1R (R&D Systems, Catalog #391-GR), extracellular domain (human) (UniProt P08069); assay: rhIGF-1R-coated beads; competitor unlabeled 24-57
[12] = target: recombinant human IGF-1R (R&D Systems, Catalog #391-GR), extracellular domain (human) (UniProt P08069); assay: rhIGF-1R-coated beads; competitor unlabeled 24-60
[13] = target: recombinant human IGF-1R (R&D Systems, Catalog #391-GR), extracellular domain (human) (UniProt P08069); assay: rhIGF-1R-coated beads; competitor unlabeled αIR-3
[14] = target: recombinant human IGF-1R (R&D Systems, Catalog #391-GR), extracellular domain (human) (UniProt P08069); assay: rhIGF-1R-coated beads; competitor unlabeled MAB391
[15] = target: EGP-1 expressed on cancer cell lines (MCF-7, DU-145, ME-180) (UniProt P09758); assay: flow cytometry (FACScan), DU145 cells
Sequence of EGP-1 expressed on cancer cell lines (MCF-7, DU-145, ME-180) (P09758 27-323 limits assumed): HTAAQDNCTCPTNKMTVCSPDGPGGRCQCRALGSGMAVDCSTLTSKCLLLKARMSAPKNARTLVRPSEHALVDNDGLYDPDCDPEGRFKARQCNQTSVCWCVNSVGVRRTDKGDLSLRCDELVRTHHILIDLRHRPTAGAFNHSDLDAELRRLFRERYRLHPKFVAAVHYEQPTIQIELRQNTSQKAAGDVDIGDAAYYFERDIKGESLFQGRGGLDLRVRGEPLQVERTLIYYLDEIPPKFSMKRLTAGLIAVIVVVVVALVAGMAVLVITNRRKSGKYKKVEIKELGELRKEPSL

[16] = target: EGP-1 expressed on cancer cell lines (MCF-7, DU-145, ME-180) (UniProt P09758); assay: flow cytometry (FACScan), MCF-7 cells
[17] = target: EGP-1 expressed on cancer cell lines (MCF-7, DU-145, ME-180) (UniProt P09758); assay: flow cytometry (FACScan), ME-180 cells
[18] = target: IGF-1R expressed on cancer cell lines (MCF-7, MCF-7L, CaPan1, DU-145, ME-180, Hep G2, HT-29, LNCaP) (human) (UniProt P08069); assay: 125I-IGF-1 binding to MCF-7L cells with antibody at 10 ng/mL
[19] = target: IGF-1R expressed on cancer cell lines (MCF-7, MCF-7L, CaPan1, DU-145, ME-180, Hep G2, HT-29, LNCaP) (human) (UniProt P08069); assay: 125I-IGF-1 binding to MCF-7L cells with antibody at 100 ng/mL
[20] = target: IGF-1R expressed on cancer cell lines (MCF-7, MCF-7L, CaPan1, DU-145, ME-180, Hep G2, HT-29, LNCaP) (human) (UniProt P08069); assay: 125I-IGF-1 binding to MCF-7L cells with antibody at 1000 ng/mL
[21] = target: IGF-1R expressed on cancer cell lines (MCF-7, MCF-7L, CaPan1, DU-145, ME-180, Hep G2, HT-29, LNCaP) (human) (UniProt P08069); assay: 125I-IGF-1 binding to MCF-7L cells with antibody at 0 ng/mL (baseline)
[22] = target: IGF-1R and EGP-1 together on cancer cell lines (MCF-7, DU-145, ME-180); assay: flow cytometry (FACScan), MCF-7 cells; control

Substance | % binding [2] | % binding [3] | % binding [4] | % binding [5] | % binding [6] | % binding [7] | % binding [8] | % binding [9] | % binding [10] | % binding [11] | % binding [12] | % binding [13] | % binding [14] | also measured
22-20 (bispecific hexavalent DNL construct: hLL2 IgG-AD2 with four hA20 Fab-DDD2) (bispecific antibody) |  |  |  |  |  |  |  |  |  |  |  |  |  | % Positive [1]: 3.1%; MFI [1]: 2.11
24-60 (commercial anti-IGF-1R mAb) (antibody) | 0% | 100% | 100% | 88% | 79% | 0% | 0% | 82% | 18% | 88% | 0% | 21% | 0% | 
Hex-hRS7 (monospecific hexavalent DNL construct of hRS7, anti-EGP-1) |  |  |  |  |  |  |  |  |  |  |  |  |  | % Positive [15]: 93.7%; MFI [15]: 17; % Positive [16]: 99.9%; MFI [16]: 35.7; % Positive [17]: 100%; MFI [17]: 59.6
human IgG (control) (antibody) |  |  |  |  |  |  |  |  |  |  |  |  |  | % Positive [22]: 2.34%; MFI [22]: 1.84

Further lines, with some results ahead:

% binding [2] | % binding [3] | % binding [4] | % binding [5] | % binding [6] | % binding [7] | % binding [8] | % binding [9] | % binding [10] | % binding [11] | % binding [12] | % binding [13] | % binding [14] | Substance | also measured
40% |  |  |  |  |  |  |  |  |  |  |  | 0% | MAB391 (commercial mouse anti-IGF-1R monoclonal antibody, R&D clone 33255.111) | % binding of 125I-IGF-1 [18]: 95%; % binding of 125I-IGF-1 [19]: 54%; % binding of 125I-IGF-1 [20]: 38%; % binding of 125I-IGF-1 [21]: 100%
86% | 95% | 115% | 97% | 76% | 97% | 107% | 89% | 52% | 87% | 0% | 0% | 0% | αIR-3 (commercial anti-IGF-1R mAb) (antibody) | 
